# Measurements reported in US11510990B2, “Conjugates of fusion proteins of GLP-1 and FGF21” (BEIJING QL BIOPHARMACEUTICAL CO., LTD., priority 2020, dated 2022).
# Assay: Body weight reduction in C57BL/6 mice, daily subcutaneous dosing
# Format: in vivo
# Conditions: for Body weight reduction at 30 nmol/kg (% reduction compared to vehicle)(Day11): male C57BL/6 mice, 30 nmol/kg subcutaneously everyday, Day 11
# Protocol: FIGS. 1A-1F show in vivo activities of fusion protein conjugates. […] Body weight was measured daily. […] Compared to Vehicle control: ***, p<0.001. All data are expressed as mean values and standard error (SEM).
# 10 week old male C57BL/6 mice were injected everyday subcutaneously with 30 nmol/kg exemplary fusion protein conjugates for 10 or 14 days (n=5). Body weight was daily monitored for each individual animal. Day 1 and Day 10 (or Day 14) are first day and last day of molecule dosage. % BW loss=100*(BW on Day n-BW on Day 1)/(BW on Day 1). Data are indicated as mean values and standard error (SEM) or pooled values. Statistical analysis was performed by One-way ANOVA. Body weight reduction on Day 11 in Table 5 is calculated by −1*(% BW loss−% BW loss of vehicle group).
molecule,measurement,setting,value
Semaglutide [reference compound],Body weight reduction at 30 nmol/kg (% reduction compared to vehicle)(Day11),,6.4%
"Compound 14: GLP-1/FGF21 fusion polypeptide SEQ ID NO: 14 conjugated with Moiety A at 222K (conjugate, Moiety A conjugated at K222) HGEGTFTSDVSSYLEEQAAREFIAWLVRGGGGQEPGQEPGQEPGQEPGQEPHPIPDSSPLLQFGGQVRQRYLYTDDAQQTEAHLEIREDGTVGGAADQSPESLLQLRALRPGVIQILGVRTSRFLCQRPDGALYGSLHFDPEACSFRELLLEDGYNVYQSEAHGLPLHLPGQRSPHRDPAPRGPARFLPLPGLPPALPEPPGILAPQPPDVGSSDPLSLVGKSQGRSPSYES",BW reduction efficacy compared to Compounds 10 and 13,30 nmol/kg,lower BW reduction efficacy
same,Body weight reduction at 30 nmol/kg (% reduction compared to vehicle)(Day11),,9.8%
"Compound 13: GLP-1/FGF21 fusion polypeptide SEQ ID NO: 13 conjugated with Moiety A at 222K (conjugate, Moiety A conjugated at K222) HGEGTFTSDVSSYLEEQAAREFIAWLVRGGGGAQPGAQPGAQPGAQPGAQPHPIPDSSPLLQFGGQVRQRYLYTDDAQQTEAHLEIREDGTVGGAADQSPESLLQLRALRPGVIQILGVRTSRFLCQRPDGALYGSLHFDPEACSFRELLLEDGYNVYQSEAHGLPLHLPGQRSPHRDPAPRGPARFLPLPGLPPALPEPPGILAPQPPDVGSSDPLSLVGKSQGRSPSYES",Body weight reduction at 30 nmol/kg (% reduction compared to vehicle)(Day11),,23.6%
"Compound 48: GLP-1/FGF21 fusion polypeptide SEQ ID NO: 88 conjugated with Moiety A at 51K and 222K (conjugate, Moiety A conjugated at K51 and K222) HGEGTFTSDVSSYLEEQAAREFIAWLVRGGGGAQPGAQPGAQPGAQPGAQKHPIPDSSPLLQFGGQVRQRYLYTDDAQQTEAHLEIREDGTVGGAADQSPESLLQLRALRPGVIQILGVRTSRFLCQRPDGALYGSLHFDPEACSFRELLLEDGYNVYQSEAHGLPLHLPGQRSPHRDPAPRGPARFLPLPGLPPALPEPPGILAPQPPDVGSSDPLSLVGKSQGRSPSYES",Body weight reduction at 30 nmol/kg (% reduction compared to vehicle)(Day11),,27.8%
"Compound 22: GLP-1/FGF21 fusion polypeptide SEQ ID NO: 22 conjugated with Moiety A at 51K and 231K (conjugate, Moiety A conjugated at K51 and K231) HGEGTFTSDVSSYLEEQAAREFIAWLVRGGGGGGGSGGGGSGGGGSGGGGKHPIPDSSPLLQFGGQVRQRYLYTDDAQQTEAHLEIREDGTVGGAADQSPESLLQLRALRPGVIQILGVRTSRFLCQRPDGALYGSLHFDPEACSFRELLLEDGYNVYQSEAHGLPLHLPGQRSPHRDPAPRGPARFLPLPGLPPALPEPPGILAPQPPDVGSSDPLSLVGGSQGRSPSYK",Body weight reduction at 30 nmol/kg (% reduction compared to vehicle)(Day11),,32.9%
"Compound 5: GLP-1/FGF21 fusion polypeptide SEQ ID NO: 5 conjugated with Moiety A at 51K and 222K (conjugate, Moiety A conjugated at K51 and K222) HGEGTFTSDVSSYLEEQAAREFIAWLVRGGGGGGGSGGGGSGGGGSGGGGKHPIPDSSPLLQFGGQVRQRYLYTDDAQQTEAHLEIREDGTVGGAADQSPESLLQLRALRPGVIQILGVRTSRFLCQRPDGALYGSLHFDPEACSFRELLLEDGYNVYQSEAHGLPLHLPGQRSPHRDPAPRGPARFLPLPGLPPALPEPPGILAPQPPDVGSSDPLSLVGKSQGRSPSYAS",BW reduction compared to Semaglutide,"30 nmol/kg, 10-day dosing period (FIGS. 1A-1B)",much more enhanced and persistent BW reduction
same,Body weight reduction at 30 nmol/kg (% reduction compared to vehicle)(Day11),,14.4%
"Compound 15: GLP-1/FGF21 fusion polypeptide SEQ ID NO: 15 conjugated with Moiety A at 231K (conjugate, Moiety A conjugated at K231) HGEGTFTSDVSSYLEEQAAREFIAWLVRGGGGGGGSGGGGSGGGGSGGGGSHPIPDSSPLLQFGGQVRQRYLYTDDAQQTEAHLEIREDGTVGGAADQSPESLLQLRALRPGVIQILGVRTSRFLCQRPDGALYGSLHFDPEACSFRELLLEDGYNVYQSEAHGLPLHLPGQRSPHRDPAPRGPARFLPLPGLPPALPEPPGILAPQPPDVGSSDPLSLVGPSQGRSPSYKS",Body weight reduction at 30 nmol/kg (% reduction compared to vehicle)(Day11),,11.3%
"Compound 11: GLP-1/FGF21 fusion polypeptide SEQ ID NO: 11 conjugated with Moiety A at 221K (conjugate, Moiety A conjugated at K221) HGEGTFTSDVSSYLEEQAAREFIAWLVRGGGGGGGSGGGGSGGGGSGGGGSHPIPDSSPLLQFGGQVRQRYLYTDDAQQTEAHLEIREDGTVGGAADQSPESLLQLRALRPGVIQILGVRTSRFLCQRPDGALYGSLHFDPEACSFRELLLEDGYNVYQSEAHGLPLHLPGQRSPHRDPAPRGPARFLPLPGLPPALPEPPGILAPQPPDVGSSDPLSLVKPSQGRSPSYES",Body weight reduction at 30 nmol/kg (% reduction compared to vehicle)(Day11),,10.4%
"Compound 51: GLP-1/FGF21 fusion polypeptide SEQ ID NO: 148 conjugated with Moiety B at 51C and 222C (conjugate, Moiety B conjugated at C51 and C222) HGEGTFTSDVSSYLEEQAAKEFIAWLVRGGGGGGGSGGGGSGGGGSGGGGCHPIPDSSPLLQFGGQVRQRYLYTDDAQQTEAHLEIREDGTVGGAADQSPESLLQLKALKPGVIQILGVKTSRFLCQRPDGALYGSLHFDPEACSFRELLLEDGYNVYQSEAHGLPLHLPGQKSPHRDPAPRGPARFLPLPGLPPALPEPPGILAPQPPDVGSSDPLSLVGCSQGRSPSYES",Body weight reduction at 30 nmol/kg (% reduction compared to vehicle)(Day11),,26.2%
"Compound 12: GLP-1/FGF21 fusion polypeptide SEQ ID NO: 12 conjugated with Moiety A at 225K (conjugate, Moiety A conjugated at K225) HGEGTFTSDVSSYLEEQAAREFIAWLVRGGGGGGGSGGGGSGGGGSGGGGSHPIPDSSPLLQFGGQVRQRYLYTDDAQQTEAHLEIREDGTVGGAADQSPESLLQLRALRPGVIQILGVRTSRFLCQRPDGALYGSLHFDPEACSFRELLLEDGYNVYQSEAHGLPLHLPGQRSPHRDPAPRGPARFLPLPGLPPALPEPPGILAPQPPDVGSSDPLSLVGGSQKRSPSYES",Body weight reduction at 30 nmol/kg (% reduction compared to vehicle)(Day11),,22.8%
"Compound 20: GLP-1/FGF21 fusion polypeptide SEQ ID NO: 20 conjugated with Moiety A at 51K and 221K (conjugate, Moiety A conjugated at K51 and K221) HGEGTFTSDVSSYLEEQAAREFIAWLVRGGGGGGGSGGGGSGGGGSGGGGKHPIPDSSPLLQFGGQVRQRYLYTDDAQQTEAHLEIREDGTVGGAADQSPESLLQLRALRPGVIQILGVRTSRFLCQRPDGALYGSLHFDPEACSFRELLLEDGYNVYQSEAHGLPLHLPGQRSPHRDPAPRGPARFLPLPGLPPALPEPPGILAPQPPDVGSSDPLSLVKPSQGRSPSYES",Body weight reduction at 30 nmol/kg (% reduction compared to vehicle)(Day11),,26.6%
"Compound 2: GLP-1/FGF21 fusion polypeptide SEQ ID NO: 2 conjugated with Moiety A at 20K and 231K (conjugate, Moiety A conjugated at K20 and K231) HGEGTFTSDVSSYLEEQAAKEFIAWLVRGGGGGGGSGGGGSGGGGSGGGGSHPIPDSSPLLQFGGQVRQRYLYTDDAQQTEAHLEIREDGTVGGAADQSPESLLQLRALRPGVIQILGVRTSRFLCQRPDGALYGSLHFDPEACSFRELLLEDGYNVYQSEAHGLPLHLPGQRSPHRDPAPRGPARFLPLPGLPPALPEPPGILAPQPPDVGSSDPLSLVGGSQGRSPSYKS",Body weight reduction at 30 nmol/kg (% reduction compared to vehicle)(Day11),,18.2%
"Compound 21: GLP-1/FGF21 fusion polypeptide SEQ ID NO: 21 conjugated with Moiety A at 51K and 225K (conjugate, Moiety A conjugated at K51 and K225) HGEGTFTSDVSSYLEEQAAREFIAWLVRGGGGGGGSGGGGSGGGGSGGGGKHPIPDSSPLLQFGGQVRQRYLYTDDAQQTEAHLEIREDGTVGGAADQSPESLLQLRALRPGVIQILGVRTSRFLCQRPDGALYGSLHFDPEACSFRELLLEDGYNVYQSEAHGLPLHLPGQRSPHRDPAPRGPARFLPLPGLPPALPEPPGILAPQPPDVGSSDPLSLVGGSQKRSPSYES",Body weight reduction at 30 nmol/kg (% reduction compared to vehicle)(Day11),,34.4%
"Compound 50: GLP-1/FGF21 fusion polypeptide SEQ ID NO: 117 conjugated with Moiety A at 51K and 233K (conjugate, Moiety A conjugated at K51 and K233) HGEGTFTSDVSSYLEEQAAREFIAWLVRGGGGGGGSGGGGSGGGGSGGGGKHPIPDSSPLLQFGGQVRQRYLYTDDAQQTEAHLEIREDGTVGGAADQSPESLLQLRALRPGVIQILGVRTSRFLCQRPDGALYGSLHFDPEACSFRELLLEDGYNVYQSEAHGLPLHLPGQRSPHRDPAPRGPARFLPLPGLPPALPEPPGILAPQPPDVGSSDPLSLVGGSQGRSPSYESK",Body weight reduction at 30 nmol/kg (% reduction compared to vehicle)(Day11),,9.4%
